Measurements from paper PMC7818446, “Enzymology of the pathway for ATP production by arginine breakdown” (The Febs Journal, 2020).
One block for each molecule: values may come before it.

Legend:
[1] = target: T1, ArcA (arginine deiminase, ADI) (Lactococcus lactis, UniProt P58013); assay: citrulline formation, COLDER assay (A540); assay type: biochemical; conditions: read-out: % inhibition at 10 mM
T1 construct: expressed in L. lactis NZ9000; tetramer (194 kDa)
T1 sequence (P58013 1-410): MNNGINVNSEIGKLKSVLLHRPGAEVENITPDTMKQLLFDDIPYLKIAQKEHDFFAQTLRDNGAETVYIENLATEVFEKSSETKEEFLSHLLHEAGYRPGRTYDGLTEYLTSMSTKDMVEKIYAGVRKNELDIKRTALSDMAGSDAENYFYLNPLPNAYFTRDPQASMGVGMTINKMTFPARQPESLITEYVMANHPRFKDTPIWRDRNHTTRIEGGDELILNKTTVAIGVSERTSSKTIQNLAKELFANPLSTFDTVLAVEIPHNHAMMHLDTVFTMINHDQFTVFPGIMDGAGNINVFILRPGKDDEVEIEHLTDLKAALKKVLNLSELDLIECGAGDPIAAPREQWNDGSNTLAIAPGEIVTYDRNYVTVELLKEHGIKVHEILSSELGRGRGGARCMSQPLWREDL

[2] = target: T2, ArcC1 (carbamate kinase, CK) (Lactococcus lactis, UniProt Q9CE16); assay: ATP formation by ATPlite luminescence; assay type: biochemical; conditions: 5 mM carbamoyl-Pi, 5 mM Mg-ADP; 50 mM KPi pH 7.0; 30 °C
T2 construct: expressed in L. lactis NZ9000; dimer (73 kDa)
T2 sequence (Q9CE16 1-314): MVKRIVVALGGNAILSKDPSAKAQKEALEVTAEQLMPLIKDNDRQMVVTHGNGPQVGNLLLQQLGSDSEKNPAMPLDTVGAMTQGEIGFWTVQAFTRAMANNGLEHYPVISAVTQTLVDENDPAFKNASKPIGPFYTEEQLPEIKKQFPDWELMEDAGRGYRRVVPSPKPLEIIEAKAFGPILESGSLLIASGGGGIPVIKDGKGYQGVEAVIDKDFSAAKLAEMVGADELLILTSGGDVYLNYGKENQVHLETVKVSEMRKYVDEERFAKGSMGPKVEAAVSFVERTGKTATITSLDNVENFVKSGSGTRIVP

[3] = target: T3, ArcB (ornithine transcarbamoylase, OTC) (Lactococcus lactis, UniProt P0C2U0); assay: citrulline formation, COLDER assay (A540); assay type: biochemical; conditions: citrulline-forming direction; 5 mM carbamoyl-Pi; 50 mM KPi pH 7.0; 30 °C
T3 construct: expressed in L. lactis NZ9000; hexamer (245 kDa)
T3 sequence (P0C2U0 1-354): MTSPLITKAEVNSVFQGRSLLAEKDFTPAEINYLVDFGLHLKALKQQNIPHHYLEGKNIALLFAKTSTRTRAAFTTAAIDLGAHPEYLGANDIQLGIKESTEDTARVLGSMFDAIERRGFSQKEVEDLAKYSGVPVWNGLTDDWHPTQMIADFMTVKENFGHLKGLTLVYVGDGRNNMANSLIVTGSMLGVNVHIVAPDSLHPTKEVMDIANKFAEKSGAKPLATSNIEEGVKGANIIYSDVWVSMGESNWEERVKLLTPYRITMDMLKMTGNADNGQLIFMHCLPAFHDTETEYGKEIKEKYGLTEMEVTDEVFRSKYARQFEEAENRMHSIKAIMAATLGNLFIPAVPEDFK

[4] = target: T3, ArcB (ornithine transcarbamoylase, OTC); assay: citrulline formation, COLDER assay (A540); assay type: biochemical; conditions: read-out: % inhibition at 10 mM
[5] = target: T1, ArcA (arginine deiminase, ADI); assay: citrulline formation, COLDER assay (A540); Michaelis-Menten with uncompetitive substrate inhibition; assay type: biochemical; conditions: 3.2 nM ArcA, 50 mM KPi pH 7.0, 30 °C, n = 1
[6] = target: T2, ArcC1 (carbamate kinase, CK); assay: ATP formation by ATPlite luminescence; assay type: biochemical; conditions: read-out: % inhibition at 10 mM
[7] = substrate: Nc1ncnc2c1ncn2[C@@H]1O[C@H](COP(=O)(O)OP(=O)(O)O)[C@@H](O)[C@H]1O; assay: ATP/ADP ratio by PercevalHR fluorescence, pH-corrected with pyranine; assay type: biochemical, Lactococcus lactis; conditions: 5 mM carbamoyl-Pi, 50 mM KPi pH 7.0, 30 °C
[8] = substrate: NC(=O)OP(=O)(O)O; assay: as above; assay type: biochemical, Lactococcus lactis; conditions: 5 mM Mg-ADP, 50 mM KPi pH 7.0, 30 °C
[9] = substrate: N=C(N)NCCC[C@H](N)C(=O)O; assay: citrulline formation, COLDER assay (A540); assay type: biochemical, Lactococcus lactis; conditions: 50 mM KPi pH 7.0, 30 °C, 42 nM ArcA, arginine up to 480 µM
[10] = substrate: NC(=O)OP(=O)(O)O; assay: citrulline formation, COLDER assay (A540); assay type: biochemical, Lactococcus lactis; conditions: citrulline-forming direction, 5 mM ornithine, 50 mM KPi pH 7.0, 30 °C
purified protein [11] = substrate: NCCC[C@H](N)C(=O)O; assay: purified protein; conditions: internal ornithine as counter-substrate, 25 µM external arginine, 50 mM KPi pH 7.0, 30 °C
purified protein [12] = substrate: N=C(N)NCCC[C@H](N)C(=O)O; assay: purified protein; assay type: biochemical, Lactococcus lactis; conditions: external arginine, 10 mM internal ornithine, DOPE:DOPG:DOPC 50:38:12, 50 mM KPi pH 7.0, 30 °C, labelled compound
purified protein [13] = substrate: NC(=O)NCCC[C@H](N)C(=O)O; assay: purified protein; assay type: biochemical, Lactococcus lactis; conditions: internal citrulline as counter-substrate, 25 µM external arginine, membrane potential −120 mV (valinomycin), pH 7.0, 30 °C

inhibition at 10000 µM [1]: 30% | % inhibition [2]: ornithine was slightly inhibitory | Km [3]: 700 ± 200 µM
Molecule: NCCC[C@H](N)C(=O)O [L-ornithine]

Molecule: N=C(N)NCCC[C@H](N)C(=O)O [L-arginine]
inhibition at 10000 µM [4]: 25% | K I [5]: 3.2 ± 0.4 mM

inhibition at 10000 µM [6]: 40 to 50%
Molecule: NC(=O)NCCC[C@H](N)C(=O)O [L-citrulline]

B1: ArcC1 (carbamate kinase, CK) (Lactococcus lactis subsp. lactis Il1403) (protein)
chain: MVKRIVVALGGNAILSKDPSAKAQKEALEVTAEQLMPLIKDNDRQMVVTHGNGPQVGNLLLQQLGSDSEKNPAMPLDTVGAMTQGEIGFWTVQAFTRAMANNGLEHYPVISAVTQTLVDENDPAFKNASKPIGPFYTEEQLPEIKKQFPDWELMEDAGRGYRRVVPSPKPLEIIEAKAFGPILESGSLLIASGGGGIPVIKDGKGYQGVEAVIDKDFSAAKLAEMVGADELLILTSGGDVYLNYGKENQVHLETVKVSEMRKYVDEERFAKGSMGPKVEAAVSFVERTGKTATITSLDNVENFVKSGSGTRIVP
notes: expressed in L. lactis NZ9000; dimer (73 kDa)
Km [7]: 1600 ± 700 µM | kcat [7]: 190 ± 15 s⁻¹ | Km [8]: 600 ± 200 µM | kcat [8]: 200 ± 20 s⁻¹

B2: ArcA (arginine deiminase, ADI) (Lactococcus lactis subsp. lactis Il1403) (protein)
chain: MNNGINVNSEIGKLKSVLLHRPGAEVENITPDTMKQLLFDDIPYLKIAQKEHDFFAQTLRDNGAETVYIENLATEVFEKSSETKEEFLSHLLHEAGYRPGRTYDGLTEYLTSMSTKDMVEKIYAGVRKNELDIKRTALSDMAGSDAENYFYLNPLPNAYFTRDPQASMGVGMTINKMTFPARQPESLITEYVMANHPRFKDTPIWRDRNHTTRIEGGDELILNKTTVAIGVSERTSSKTIQNLAKELFANPLSTFDTVLAVEIPHNHAMMHLDTVFTMINHDQFTVFPGIMDGAGNINVFILRPGKDDEVEIEHLTDLKAALKKVLNLSELDLIECGAGDPIAAPREQWNDGSNTLAIAPGEIVTYDRNYVTVELLKEHGIKVHEILSSELGRGRGGARCMSQPLWREDL
notes: expressed in L. lactis NZ9000; tetramer (194 kDa)
Km [9]: 34.5 ± 6.6 µM | kcat [9]: 3.3 ± 0.2 s⁻¹

B3: ArcB (ornithine transcarbamoylase, OTC) (Lactococcus lactis subsp. lactis Il1403) (protein)
chain: MTSPLITKAEVNSVFQGRSLLAEKDFTPAEINYLVDFGLHLKALKQQNIPHHYLEGKNIALLFAKTSTRTRAAFTTAAIDLGAHPEYLGANDIQLGIKESTEDTARVLGSMFDAIERRGFSQKEVEDLAKYSGVPVWNGLTDDWHPTQMIADFMTVKENFGHLKGLTLVYVGDGRNNMANSLIVTGSMLGVNVHIVAPDSLHPTKEVMDIANKFAEKSGAKPLATSNIEEGVKGANIIYSDVWVSMGESNWEERVKLLTPYRITMDMLKMTGNADNGQLIFMHCLPAFHDTETEYGKEIKEKYGLTEMEVTDEVFRSKYARQFEEAENRMHSIKAIMAATLGNLFIPAVPEDFK
notes: expressed in L. lactis NZ9000; hexamer (245 kDa)
Km [10]: 2700 ± 400 µM | kcat [10]: 565 ± 45 s⁻¹

B4: ArcD2 (arginine/ornithine antiporter, AOA) (Lactococcus lactis subsp. lactis Il1403) (protein)
chain: MENKKTKGISLFALLAIIISGAIGGGVFNLANDLANGSTPGGVMISWLFIGFGIFMLVLSFNRLITIRPKLSGVSDYAREGFGDFIGFLSGWGYWISAWTGTIGFAVLMMTSADYFFPSKFANSNGSLTVLSVIIVSIISWILMFLVDRGVETAALVNAVVMIAKLIPLVVFSITGIILFKADVFTQHFWQTFTSNLAADGSVKSLVWHAMTAGGLLDQIKGSLMVMVWVFVGIEGAAMMGNRAKKKSDTAKATIIGLAVLLVIYVLLSLLPYGYMDQASLANVKAPGLVYILNEMVGGWGGSLMAIGLMISLLGAWLSWTMLPVEATQQLAEKKLLPSWFGKLNKYHAPSNSLLITQLMIQIFIIITYFVANAYNVFIYMATAVIMICYALVGAYLLKIGIKEGSIKNILIGFFTFAFQALALYLSGWQYVWLAMILYTIGFILFIKAKKESRQAISVKEWAGMFIVALLGVLAILVLICGAKSGTALDLRGLLGY
notes: expressed in L. lactis JP9000; reconstituted in proteoliposomes; monomer (53 kDa) in DDM
Km (purified protein [11]): 2500 ± 700 µM | kcat (purified protein [11]): 0.09 ± 0.009 s⁻¹ | Km (purified protein [12]): 6.0 ± 0.7 µM | kcat (purified protein [12]): 0.11 ± 0.005 s⁻¹ | Km (purified protein [13]): 6000 ± 2100 µM
